Results published in IntAct's records for PubMed 27754869.

B1: Natural cytotoxicity triggering receptor 3 (Homo sapiens), O14931 (parent)
chain: MAWMLLLILIMVHPGSCALWVSQPPEIRTLEGSSAFLPCSFNASQGRLAIGSVTWFRDEVVPGKEVRNGTPEFRGRLAPLASSRFLHDHQAELHIRDVRGHDASIYVCRVEVLGLGVGTGNGTRLVVEKEHPQLGAGTVLLLRAGFYAVSFLSVAVGSTVYYQGKCLTWKGPRRQLPAVVPAPLPPPCGSSAHLLPPVPGG
B2: Natural cytotoxicity triggering receptor 3 (Homo sapiens), O14931 (parent)
chain: B1 chain
partner: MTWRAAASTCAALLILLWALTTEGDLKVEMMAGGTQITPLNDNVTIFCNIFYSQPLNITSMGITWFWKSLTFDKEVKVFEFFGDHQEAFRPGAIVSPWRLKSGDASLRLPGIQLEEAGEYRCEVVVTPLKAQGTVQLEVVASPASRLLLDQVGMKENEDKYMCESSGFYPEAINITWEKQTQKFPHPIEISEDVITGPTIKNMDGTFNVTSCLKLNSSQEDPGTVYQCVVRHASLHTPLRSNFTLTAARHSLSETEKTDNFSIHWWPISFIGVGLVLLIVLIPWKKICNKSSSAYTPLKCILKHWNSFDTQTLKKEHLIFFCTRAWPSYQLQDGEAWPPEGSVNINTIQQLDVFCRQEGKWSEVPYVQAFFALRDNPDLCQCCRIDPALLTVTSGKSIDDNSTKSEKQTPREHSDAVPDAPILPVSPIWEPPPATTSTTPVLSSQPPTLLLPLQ

Variants of: B1
Conditions: with BAG6, P46379-2
Chain of BAG6, P46379-2 (P46379 other isoform, or with tags, fused parts or gaps): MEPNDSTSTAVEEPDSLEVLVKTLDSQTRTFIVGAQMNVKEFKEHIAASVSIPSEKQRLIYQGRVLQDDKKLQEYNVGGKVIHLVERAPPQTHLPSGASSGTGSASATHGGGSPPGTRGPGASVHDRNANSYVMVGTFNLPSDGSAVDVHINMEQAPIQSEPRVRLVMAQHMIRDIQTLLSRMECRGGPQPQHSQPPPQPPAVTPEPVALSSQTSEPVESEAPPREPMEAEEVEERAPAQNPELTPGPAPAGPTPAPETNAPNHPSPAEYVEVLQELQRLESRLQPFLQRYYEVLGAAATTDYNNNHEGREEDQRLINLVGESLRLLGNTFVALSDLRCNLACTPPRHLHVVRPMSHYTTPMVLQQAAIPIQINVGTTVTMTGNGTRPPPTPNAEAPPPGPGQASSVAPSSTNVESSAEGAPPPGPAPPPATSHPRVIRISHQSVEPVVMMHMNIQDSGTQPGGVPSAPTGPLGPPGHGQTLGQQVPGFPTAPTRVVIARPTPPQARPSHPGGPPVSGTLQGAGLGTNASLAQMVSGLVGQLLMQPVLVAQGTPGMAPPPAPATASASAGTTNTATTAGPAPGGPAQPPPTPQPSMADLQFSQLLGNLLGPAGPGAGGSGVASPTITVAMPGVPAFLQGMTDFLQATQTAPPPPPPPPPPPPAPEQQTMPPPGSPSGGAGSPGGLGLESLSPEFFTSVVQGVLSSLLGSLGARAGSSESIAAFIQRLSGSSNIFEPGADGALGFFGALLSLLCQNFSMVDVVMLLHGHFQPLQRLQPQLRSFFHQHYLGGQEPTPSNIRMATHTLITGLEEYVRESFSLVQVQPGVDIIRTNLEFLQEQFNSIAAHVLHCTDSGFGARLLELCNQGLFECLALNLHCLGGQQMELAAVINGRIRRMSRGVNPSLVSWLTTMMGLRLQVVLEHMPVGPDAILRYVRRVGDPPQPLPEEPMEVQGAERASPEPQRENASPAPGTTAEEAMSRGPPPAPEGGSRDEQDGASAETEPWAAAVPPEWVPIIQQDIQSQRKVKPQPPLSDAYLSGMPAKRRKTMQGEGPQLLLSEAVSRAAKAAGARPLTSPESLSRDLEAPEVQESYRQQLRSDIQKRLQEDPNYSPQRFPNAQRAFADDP

Variant | effect of a mutation on the interaction
MAWMLLLILIMVHPGSCALWVSQPPEIRTLEGSSAFLPCSFNASQGRLAIGSVTWFRDEVVPGKEVRNGTPEFRGRLAPLASSRFLHDHQAELHIRDVRGHDASIYVCRVEVLGLGVGTGNGTRLVVEKEHPQLGAGTALLLRAGFYAVSFLSVAVGSTVYYQGKCLTWKGPRRQLPAVVPAPLPPPCGSSAHLLPPVPGG [V139A] | with no effect
MAWMLLLILIMVHPGSCALWVSQPPEIRTLEGSSAFLPCSFNASQGRLAIGSVTWFRDEVVPGKEVRNGTPEFRGRLAPLASSRFLHDHQAELHIRDVRGHDASIYVCRVEVLGLGVGTGNGTRLVVEKEHAQLGAGTVLLLRAGFYAVSFLSVAVGSTVYYQGKCLTWKGPRRQLPAVVPAPLPPPCGSSAHLLPPVPGG [P132A] | with no effect
MAWMLLLILIMVHPGSCALWVSQPPEIRTLEGSSAFLPCSFNASQGRLAIGSVTWFRDEVVPGKEVRNGTPEFRGRLAPLASSRFLHDHQAELHIRDVRGHDASIYVCRVEVLGLGVGTGNGTRLVVEKEHPQAGAGTVLLLRAGFYAVSFLSVAVGSTVYYQGKCLTWKGPRRQLPAVVPAPLPPPCGSSAHLLPPVPGG [L134A] | with no effect
MAWMLLLILIMVHPGSCALWVSQPPEIRTLEGSSAFLPCSFNASQGRLAIGSVTWFRDEVVPGKEVRNGTPEFRGRLAPLASSRFLHDHQAELHIRDVRGHDASIYVCRVEVLGLGVGTGNGTRLVVEKEHPQLGAGTVLALRAGFYAVSFLSVAVGSTVYYQGKCLTWKGPRRQLPAVVPAPLPPPCGSSAHLLPPVPGG [L141A] | decreasing interaction strength
MAWMLLLILIMVHPGSCALWVSQPPEIRTLEGSSAFLPCSFNASQGRLAIGSVTWFRDEVVPGKEVRNGTPEFRGRLAPLASSRFLHDHQAELHIRDVRGHDASIYVCRVEVLGLGVGTGNGTRLVVEKEHPQLGAGTVLLLAAGFYAVSFLSVAVGSTVYYQGKCLTWKGPRRQLPAVVPAPLPPPCGSSAHLLPPVPGG [R143A] | decreasing interaction strength
MAWMLLLILIMVHPGSCALWVSQPPEIRTLEGSSAFLPCSFNASQGRLAIGSVTWFRDEVVPGKEVRNGTPEFRGRLAPLASSRFLHDHQAELHIRDVRGHDASIYVCRVEVLGLGVGTGNGTRLVVEKEHPQLAAGTVLLLRAGFYAVSFLSVAVGSTVYYQGKCLTWKGPRRQLPAVVPAPLPPPCGSSAHLLPPVPGG [G135A] | increasing interaction strength
MAWMLLLILIMVHPGSCALWVSQPPEIRTLEGSSAFLPCSFNASQGRLAIGSVTWFRDEVVPGKEVRNGTPEFRGRLAPLASSRFLHDHQAELHIRDVRGHDASIYVCRVEVLGLGVGTGNGTRLVVEKEHPQLGAGTVALLRAGFYAVSFLSVAVGSTVYYQGKCLTWKGPRRQLPAVVPAPLPPPCGSSAHLLPPVPGG [L140A] | with no effect
MAWMLLLILIMVHPGSCALWVSQPPEIRTLEGSSAFLPCSFNASQGRLAIGSVTWFRDEVVPGKEVRNGTPEFRGRLAPLASSRFLHDHQAELHIRDVRGHDASIYVCRVEVLGLGVGTGNGTRLVVEKEHPQLGAATVLLLRAGFYAVSFLSVAVGSTVYYQGKCLTWKGPRRQLPAVVPAPLPPPCGSSAHLLPPVPGG [G137A] | with no effect
MAWMLLLILIMVHPGSCALWVSQPPEIRTLEGSSAFLPCSFNASQGRLAIGSVTWFRDEVVPGKEVRNGTPEFRGRLAPLASSRFLHDHQAELHIRDVRGHDASIYVCRVEVLGLGVGTGNGTRLVVEKEHPQLGAGTVLLARAGFYAVSFLSVAVGSTVYYQGKCLTWKGPRRQLPAVVPAPLPPPCGSSAHLLPPVPGG [L142A] | decreasing interaction strength
MAWMLLLILIMVHPGSCALWVSQPPEIRTLEGSSAFLPCSFNASQGRLAIGSVTWFRDEVVPGKEVRNGTPEFRGRLAPLASSRFLHDHQAELHIRDVRGHDASIYVCRVEVLGLGVGTGNGTRLVVEKEHPQLGAGAVLLLRAGFYAVSFLSVAVGSTVYYQGKCLTWKGPRRQLPAVVPAPLPPPCGSSAHLLPPVPGG [T138A] | increasing interaction strength
MAWMLLLILIMVHPGSCALWVSQPPEIRTLEGSSAFLPCSFNASQGRLAIGSVTWFRDEVVPGKEVRNGTPEFRGRLAPLASSRFLHDHQAELHIRDVRGHDASIYVCRVEVLGLGVGTGNGTRLVVEKEAPQLGAGTVLLLRAGFYAVSFLSVAVGSTVYYQGKCLTWKGPRRQLPAVVPAPLPPPCGSSAHLLPPVPGG [H131A] | with no effect
MAWMLLLILIMVHPGSCALWVSQPPEIRTLEGSSAFLPCSFNASQGRLAIGSVTWFRDEVVPGKEVRNGTPEFRGRLAPLASSRFLHDHQAELHIRDVRGHDASIYVCRVEVLGLGVGTGNGTRLVVEKEHPALGAGTVLLLRAGFYAVSFLSVAVGSTVYYQGKCLTWKGPRRQLPAVVPAPLPPPCGSSAHLLPPVPGG [Q133A] | with no effect
MAWMLLLILIMVHPGSCALWVSQPPEIRTLEGSSAFLPCSFNASQGRLAIGSVTWFRDEVVPGKEVRNGTPEFRGRLAPLASSRFLHDHQAELHIRDVRGHDASIYVCRVEVLGLGVGTGNGTRLVVEKAHPQLGAGTVLLLRAGFYAVSFLSVAVGSTVYYQGKCLTWKGPRRQLPAVVPAPLPPPCGSSAHLLPPVPGG [E130A] | increasing interaction strength
MAWMLLLILIMVHPGSCALWVSQPPEIRTLEGSSAFLPCSFNASQGRLAIGSVTWFRDEVVPGKEVRNGTPEFRGRLAPLASSRFLHDHQAELHIRDVRGHDASIYVCRVEVLGLGVGTGNGTRLVVEAEHPQLGAGTVLLLRAGFYAVSFLSVAVGSTVYYQGKCLTWKGPRRQLPAVVPAPLPPPCGSSAHLLPPVPGG [K129A] | decreasing interaction strength

Variants of: B2
Conditions: with nr3l1_human NCR3LG1, Q68D85

Variant | effect of a mutation on the interaction
MAWMLLLILIMVHPGSCALWVSQPPEIRTLEGSSAFLPCSFNASQGRLAIGSVTWFRDEVVPGKEVRNGTPEFRGRLAPLASSRFLHDHQAELHIRDVRGHDASIYVCRVEVLGLGVGTGNGTRLVVEKEHPQAGAGTVLLLRAGFYAVSFLSVAVGSTVYYQGKCLTWKGPRRQLPAVVPAPLPPPCGSSAHLLPPVPGG [L134A] | decreasing interaction strength
MAWMLLLILIMVHPGSCALWVSQPPEIRTLEGSSAFLPCSFNASQGRLAIGSVTWFRDEVVPGKEVRNGTPEFRGRLAPLASSRFLHDHQAELHIRDVRGHDASIYVCRVEVLGLGVGTGNGTRLVVEKEHPQLGAGTVLLLAAGFYAVSFLSVAVGSTVYYQGKCLTWKGPRRQLPAVVPAPLPPPCGSSAHLLPPVPGG [R143A] | decreasing interaction strength
MAWMLLLILIMVHPGSCALWVSQPPEIRTLEGSSAFLPCSFNASQGRLAIGSVTWFRDEVVPGKEVRNGTPEFRGRLAPLASSRFLHDHQAELHIRDVRGHDASIYVCRVEVLGLGVGTGNGTRLVVEKEAPQLGAGTVLLLRAGFYAVSFLSVAVGSTVYYQGKCLTWKGPRRQLPAVVPAPLPPPCGSSAHLLPPVPGG [H131A] | decreasing interaction strength
MAWMLLLILIMVHPGSCALWVSQPPEIRTLEGSSAFLPCSFNASQGRLAIGSVTWFRDEVVPGKEVRNGTPEFRGRLAPLASSRFLHDHQAELHIRDVRGHDASIYVCRVEVLGLGVGTGNGTRLVVEKEHPQLGAGTVLLARAGFYAVSFLSVAVGSTVYYQGKCLTWKGPRRQLPAVVPAPLPPPCGSSAHLLPPVPGG [L142A] | increasing interaction strength
MAWMLLLILIMVHPGSCALWVSQPPEIRTLEGSSAFLPCSFNASQGRLAIGSVTWFRDEVVPGKEVRNGTPEFRGRLAPLASSRFLHDHQAELHIRDVRGHDASIYVCRVEVLGLGVGTGNGTRLVVEKEHPQLGAGTVLALRAGFYAVSFLSVAVGSTVYYQGKCLTWKGPRRQLPAVVPAPLPPPCGSSAHLLPPVPGG [L141A] | with no effect
MAWMLLLILIMVHPGSCALWVSQPPEIRTLEGSSAFLPCSFNASQGRLAIGSVTWFRDEVVPGKEVRNGTPEFRGRLAPLASSRFLHDHQAELHIRDVRGHDASIYVCRVEVLGLGVGTGNGTRLVVEKEHPQLGAGTALLLRAGFYAVSFLSVAVGSTVYYQGKCLTWKGPRRQLPAVVPAPLPPPCGSSAHLLPPVPGG [V139A] | increasing interaction strength
MAWMLLLILIMVHPGSCALWVSQPPEIRTLEGSSAFLPCSFNASQGRLAIGSVTWFRDEVVPGKEVRNGTPEFRGRLAPLASSRFLHDHQAELHIRDVRGHDASIYVCRVEVLGLGVGTGNGTRLVVEKEHPQLAAGTVLLLRAGFYAVSFLSVAVGSTVYYQGKCLTWKGPRRQLPAVVPAPLPPPCGSSAHLLPPVPGG [G135A] | decreasing interaction strength
MAWMLLLILIMVHPGSCALWVSQPPEIRTLEGSSAFLPCSFNASQGRLAIGSVTWFRDEVVPGKEVRNGTPEFRGRLAPLASSRFLHDHQAELHIRDVRGHDASIYVCRVEVLGLGVGTGNGTRLVVEKEHPQLGAGAVLLLRAGFYAVSFLSVAVGSTVYYQGKCLTWKGPRRQLPAVVPAPLPPPCGSSAHLLPPVPGG [T138A] | decreasing interaction strength
MAWMLLLILIMVHPGSCALWVSQPPEIRTLEGSSAFLPCSFNASQGRLAIGSVTWFRDEVVPGKEVRNGTPEFRGRLAPLASSRFLHDHQAELHIRDVRGHDASIYVCRVEVLGLGVGTGNGTRLVVEKEHPQLGAGTVALLRAGFYAVSFLSVAVGSTVYYQGKCLTWKGPRRQLPAVVPAPLPPPCGSSAHLLPPVPGG [L140A] | increasing interaction strength
MAWMLLLILIMVHPGSCALWVSQPPEIRTLEGSSAFLPCSFNASQGRLAIGSVTWFRDEVVPGKEVRNGTPEFRGRLAPLASSRFLHDHQAELHIRDVRGHDASIYVCRVEVLGLGVGTGNGTRLVVEKEHAQLGAGTVLLLRAGFYAVSFLSVAVGSTVYYQGKCLTWKGPRRQLPAVVPAPLPPPCGSSAHLLPPVPGG [P132A] | with no effect
MAWMLLLILIMVHPGSCALWVSQPPEIRTLEGSSAFLPCSFNASQGRLAIGSVTWFRDEVVPGKEVRNGTPEFRGRLAPLASSRFLHDHQAELHIRDVRGHDASIYVCRVEVLGLGVGTGNGTRLVVEKEHPALGAGTVLLLRAGFYAVSFLSVAVGSTVYYQGKCLTWKGPRRQLPAVVPAPLPPPCGSSAHLLPPVPGG [Q133A] | decreasing interaction strength
MAWMLLLILIMVHPGSCALWVSQPPEIRTLEGSSAFLPCSFNASQGRLAIGSVTWFRDEVVPGKEVRNGTPEFRGRLAPLASSRFLHDHQAELHIRDVRGHDASIYVCRVEVLGLGVGTGNGTRLVVEAEHPQLGAGTVLLLRAGFYAVSFLSVAVGSTVYYQGKCLTWKGPRRQLPAVVPAPLPPPCGSSAHLLPPVPGG [K129A] | decreasing interaction strength
MAWMLLLILIMVHPGSCALWVSQPPEIRTLEGSSAFLPCSFNASQGRLAIGSVTWFRDEVVPGKEVRNGTPEFRGRLAPLASSRFLHDHQAELHIRDVRGHDASIYVCRVEVLGLGVGTGNGTRLVVEKAHPQLGAGTVLLLRAGFYAVSFLSVAVGSTVYYQGKCLTWKGPRRQLPAVVPAPLPPPCGSSAHLLPPVPGG [E130A] | decreasing interaction strength
MAWMLLLILIMVHPGSCALWVSQPPEIRTLEGSSAFLPCSFNASQGRLAIGSVTWFRDEVVPGKEVRNGTPEFRGRLAPLASSRFLHDHQAELHIRDVRGHDASIYVCRVEVLGLGVGTGNGTRLVVEKEHPQLGAATVLLLRAGFYAVSFLSVAVGSTVYYQGKCLTWKGPRRQLPAVVPAPLPPPCGSSAHLLPPVPGG [G137A] | with no effect
